{"source": "patent US11007356B2", "about": "“Ingestible device for delivery of therapeutic agent to the gastrointestinal tract” (Progenity, Inc., priority 2018, dated 2021)", "key": {"[1]": {"conditions": "cited from earlier work"}, "[2]": {"assay": "Dosing regimen model: required bioavailability for ingestible device (Tables 16, 17)", "conditions": "for Eff Dose: approved dose x bioavailability of the approved route (Table 16); for Eff. Dose: baseline dose x bioavailability, SC (Table 17), assumed weight 70 kg"}, "[3]": {"assay": "Insulin PK after SC or intra-jejunal (IJ) jet delivery in swine (Example 3)", "assay_type": "in vivo, Yorkshire female swine", "conditions": "for Cmax of blood insulin, Average / Tmax of blood insulin, Average: average of animals; for Cmax of blood insulin / Tmax of blood insulin: individual animals", "protocol": "A total of 18 Yorkshire female swine in good health and weighing 60-70 kg each were included in this study. Swine were divided into two groups with 9 animals per group. […] A sham surgical laparotomy was performed. […] The jet delivery device was configured with the single nozzle in an axial orientation.\nSwine were divided into two groups with 9 animals per group. […] In all 18 animals, a laparotomy procedure was performed to expose the abdominal cavity. Animals remained under anesthesia during the entire procedure for the PK/PD study.\nFor the laparotomy in group 02, a small segment of the jejunal mucosa and serosa was exposed by midline laparotomy and the jet delivery device was inserted through antimesenteric incision.\n(§1) Blood samples were kept on wet ice until centrifugation and separation of plasma. […] Glucose was monitored every five (5) minutes during the study by portable glucose analyzer (StatStrip (SS) hospital glucose monitoring system (Nova Biomedical, Waltham, Mass.)). At each time point, approximate 0.1 mL of blood was drawn and immediately placed on a glucose monitoring test strip, and the whole blood glucose concentration was measured by the SS in triplicate.\nThe animals were anesthetized for the entire ECP."}, "blood glucose": {"tested_on": "blood glucose", "assay": "Euglycemic clamp procedure (PD) in swine (Example 3)", "assay_type": "in vivo, Yorkshire female swine", "protocol": "as §1\nA euglycemic clamp procedure (ECP) was employed to compare pharmacokinetics and pharmacodynamics of regular human Insulin (NOVOLIN® R) delivered subcutaneously (SC) in the neck versus intra-jejunally (IJ) by the jet delivery device in the small intestine. ECP was used to quantify the amount of glucose required to maintain normoglycemia after exogenous bolus of insulin. […] The animals were anesthetized for the entire ECP."}, "[4]": {"conditions": "pig, in vivo"}, "[5]": {"conditions": "IJ administration via jet delivery device, ~40 U"}, "[6]": {"conditions": "SC administration group compared with IJ administration group"}}, "note": "Values joined by “and” are separate entries in the source; they are usually repeats but may differ in a detail not shown here. Equal entries are not always repeated. Where two headings read alike, the source gives them in different places. Marks after values point to notes of the source that are not given here.", "data": [{"compound": "CC[C@H](C)[C@H](NC(=O)[C@H](Cc1ccccc1)NC(=O)[C@H](CCC(=O)O)NC(=O)[C@H](CCCCNC(=O)COCCOCCNC(=O)COCCOCCNC(=O)CC[C@H](NC(=O)CCCCCCCCCCCCCCCCC(=O)O)C(=O)O)NC(=O)[C@H](C)NC(=O)[C@H](C)NC(=O)[C@H](CCC(N)=O)NC(=O)CNC(=O)[C@H](CCC(=O)O)NC(=O)[C@H](CC(C)C)NC(=O)[C@H](Cc1ccc(O)cc1)NC(=O)[C@H](CO)NC(=O)[C@H](CO)NC(=O)[C@@H](NC(=O)[C@H](CC(=O)O)NC(=O)[C@H](CO)NC(=O)[C@@H](NC(=O)[C@H](Cc1ccccc1)NC(=O)[C@@H](NC(=O)CNC(=O)[C@H](CCC(=O)O)NC(=O)C(C)(C)NC(=O)[C@@H](N)Cc1cnc[nH]1)[C@@H](C)O)[C@@H](C)O)C(C)C)C(=O)N[C@@H](C)C(=O)N[C@@H](Cc1c[nH]c2ccccc12)C(=O)N[C@@H](CC(C)C)C(=O)N[C@H](C(=O)N[C@@H](CCCNC(=N)N)C(=O)NCC(=O)N[C@@H](CCCNC(=N)N)C(=O)NCC(=O)O)C(C)C", "note": "[Semaglutide, semaglutide]", "values": [{"measurement": "Bio Avail (Approved Dosing Info)", "setting": "[1]; in vivo, sc", "result": 89, "unit": "%"}]}, {"compound": "CC[C@H](C)[C@H](NC(=O)[C@H](CCC(=O)O)NC(=O)[C@H](CO)NC(=O)[C@@H](NC(=O)[C@@H](N)CO)C(C)C)C(=O)N[C@@H](CCC(N)=O)C(=O)N[C@@H](CC(C)C)C(=O)N[C@@H](CCSC)C(=O)N[C@@H](Cc1cnc[nH]1)C(=O)N[C@@H](CC(N)=O)C(=O)N[C@@H](CC(C)C)C(=O)NCC(=O)N[C@@H](CCCCN)C(=O)N[C@@H](Cc1cnc[nH]1)C(=O)N[C@@H](CC(C)C)C(=O)N[C@@H](CC(N)=O)C(=O)N[C@@H](CO)C(=O)N[C@@H](CCSC)C(=O)N[C@@H](CCC(=O)O)C(=O)N[C@@H](CCCN=C(N)N)C(=O)N[C@H](C(=O)N[C@@H](CCC(=O)O)C(=O)N[C@@H](Cc1c[nH]c2ccccc12)C(=O)N[C@@H](CC(C)C)C(=O)N[C@@H](CCCN=C(N)N)C(=O)N[C@@H](CCCCN)C(=O)N[C@@H](CCCCN)C(=O)N[C@@H](CC(C)C)C(=O)N[C@@H](CCC(N)=O)C(=O)N[C@@H](CC(=O)O)C(=O)N[C@H](C(=O)N[C@@H](Cc1cnc[nH]1)C(=O)N[C@@H](CC(N)=O)C(=O)N[C@@H](Cc1ccccc1)C(=O)O)C(C)C)C(C)C", "note": "[teriparatide]", "values": [{"measurement": "Eff Dose", "setting": "[2]", "result": 0.02, "unit": "mg"}, {"measurement": "Bio Avail (Approved Dosing Info)", "setting": "[1]; SC administration", "result": 95, "unit": "%"}]}, {"compound": "Novolin® R: regular human insulin (NOVOLIN® R)", "values": [{"measurement": "Cmax of blood insulin, Average", "setting": "[3]; [5]", "result": 77.40, "unit": "uIU/mL"}, {"measurement": "Tmax of blood insulin, Average", "setting": "[3]; [5]", "result": 0.9272, "unit": "h"}, {"measurement": "Cmax of blood insulin", "setting": "[3]; [5]", "result": "40.93 uIU/mL and 96.77 uIU/mL and 5.03 uIU/mL and 7.96 uIU/mL and 48.77 uIU/mL and 85.38 uIU/mL and 207.96 uIU/mL and 126.39 uIU/mL"}, {"measurement": "Tmax of blood insulin", "setting": "[3]; [5]", "result": "20 min and 50 min and 90 min (2×) and 40 min (3×)"}, {"measurement": "AUC of blood insulin, SC vs IJ", "setting": "[3]; [6]", "result": "higher than that of the IJ administration group"}, {"measurement": "maximum plasma concentration Cmax, SC vs IJ", "setting": "[3]; [6]", "result": "higher than that of the IJ administration group"}, {"measurement": "Cmax of blood insulin, Average", "setting": "[3]; SC administration", "result": 202.94, "unit": "uIU/mL"}, {"measurement": "Tmax of blood insulin, Average", "setting": "[3]; SC administration", "result": 1.452, "unit": "h"}, {"measurement": "Cmax of blood insulin", "setting": "[3]; SC administration", "result": "451.00 uIU/mL and 60.74 uIU/mL and 354.00 uIU/mL and 356.60 uIU/mL and 65.71 uIU/mL and 59.18 uIU/mL and 73.34 uIU/mL"}, {"measurement": "Tmax of blood insulin", "setting": "[3]; SC administration", "result": "50 min (2×) and 180 min and 105 min and 30 min and 120 min"}, {"measurement": "time to maximum plasma concentration (Tmax)", "setting": "[3]; jejunum administration group (jet delivery device)", "result": 0.9272, "unit": "h"}, {"measurement": "mean dextrose infusion rate, IJ vs SC", "setting": "blood glucose; first 70 minutes after administration", "result": "higher in the IJ administration group"}, {"measurement": "mean dextrose infusion rate, IJ vs SC", "setting": "blood glucose; from 75 minutes to 420 minutes post-administration", "result": "higher in the SC administration group"}]}, {"compound": "alirocumab", "values": [{"measurement": "Eff Dose", "setting": "[2]", "result": 63.8, "unit": "mg"}, {"measurement": "Bio Avail (Approved Dosing Info)", "setting": "[1]; in vivo, sc", "result": 85, "unit": "%"}]}, {"compound": "certolizumab pegol", "values": [{"measurement": "Eff Dose", "setting": "[2]", "result": 160, "unit": "mg"}, {"measurement": "Bio Avail (Approved Dosing Info)", "setting": "[1]; in vivo, sc", "result": 80, "unit": "%"}]}, {"compound": "denosumab", "values": [{"measurement": "Eff Dose", "setting": "[2]", "result": 36.6, "unit": "mg"}, {"measurement": "Bio Avail (Approved Dosing Info)", "setting": "[1]; in vivo, sc", "result": 61, "unit": "%"}]}, {"compound": "dulaglutide", "values": [{"measurement": "Eff Dose", "setting": "[2]", "result": 0.49, "unit": "mg"}, {"measurement": "Bioavailability relative to IV", "setting": "[4]", "result": "26.51 ± 6.55", "unit": "% ^a"}, {"measurement": "Bioavailability relative to SC", "setting": "[4]", "result": "49.11 ± 0.08", "unit": "% ^a"}, {"measurement": "(AUC)T0-T240 h ± SEM", "setting": "[4]; 1.2 mg", "result": "4355.86 ± 1094.57^a ng.hr/mL"}, {"measurement": "AUCID (± SEM)", "setting": "[4]; 1.2 mg", "result": "3890.00 ± 94.73", "unit": "ng·h/mL"}, {"measurement": "Tmax", "setting": "[4]; 1.2 mg", "result": 8, "unit": "h"}, {"measurement": "(AUC)T0-T240 h ± SEM", "setting": "[4]; iv, 1.2 mg", "result": "16429.33 ± 600.93", "unit": "ng·h/mL"}, {"measurement": "Tmax", "setting": "[4]; iv, 1.2 mg", "result": 1, "unit": "h"}, {"measurement": "(AUC)T0-T240 h ± SEM", "setting": "[4]; sc, 1.2 mg", "result": "8869 ± 887.33", "unit": "ng·h/mL"}, {"measurement": "Tmax", "setting": "[4]; sc, 1.2 mg", "result": 6, "unit": "h"}, {"measurement": "Bio Avail (Approved Dosing Info)", "setting": "[1]; in vivo, sc", "result": 65, "unit": "%"}]}, {"compound": "etanercept", "values": [{"measurement": "Eff Dose", "setting": "[2]", "result": 29.0, "unit": "mg"}, {"measurement": "Bio Avail (Approved Dosing Info)", "setting": "[1]; in vivo, sc", "result": 58, "unit": "%"}]}, {"compound": "glucagon", "values": [{"measurement": "Eff. Dose", "setting": "[2]", "result": 2.0, "unit": "mg"}, {"measurement": "Bioavail. (Baseline dose)", "setting": "[1]; in vivo, sc", "result": 100.0, "unit": "%"}]}, {"compound": "golimumab", "values": [{"measurement": "Eff Dose", "setting": "[2]", "result": 25.5, "unit": "mg"}, {"measurement": "Bio Avail (Approved Dosing Info)", "setting": "[1]; in vivo, sc", "result": 51, "unit": "%"}]}, {"compound": "natalizumab", "values": [{"measurement": "Eff Dose", "setting": "[2]", "result": 300, "unit": "mg"}, {"measurement": "Bio Avail (Approved Dosing Info)", "setting": "[1]; in vivo, iv", "result": 100, "unit": "%"}]}, {"compound": "secukinumab", "values": [{"measurement": "Eff Dose", "setting": "[2]", "result": 109.5, "unit": "mg"}, {"measurement": "Bio Avail (Approved Dosing Info)", "setting": "[1]; in vivo, sc", "result": 73, "unit": "%"}]}, {"compound": "somatropin", "values": [{"measurement": "Eff. Dose", "setting": "[2]", "result": 0.8, "unit": "mg"}, {"measurement": "Bioavail. (Baseline dose)", "setting": "[1]; in vivo, sc", "result": 80.5, "unit": "%"}]}, {"compound": "tocilizumab", "values": [{"measurement": "Eff Dose", "setting": "[2]", "result": 129.6, "unit": "mg"}, {"measurement": "Bio Avail (Approved Dosing Info)", "setting": "[1]; in vivo, sc", "result": 80, "unit": "%"}]}, {"compound": "ustekinumab", "values": [{"measurement": "Eff Dose", "setting": "[2]", "result": 35.1, "unit": "mg"}, {"measurement": "Bio Avail (Approved Dosing Info)", "setting": "[1]; in vivo, sc", "result": 78, "unit": "%"}]}, {"compound": "vedolizumab", "values": [{"measurement": "Eff Dose", "setting": "[2]", "result": 300, "unit": "mg"}, {"measurement": "Bio Avail (Approved Dosing Info)", "setting": "[1]; in vivo, iv", "result": 100, "unit": "%"}]}]}
